In paper doi:10.1101/2024.05.31.596772, “CAMSAP3 Forms Dimers via its α-helix Domain that Directly Stabilize Non-centrosomal Microtubule Minus Ends” (bioRxiv, 2024):

B1: GFP-CAMSAP3 944F (domain or fragment, UniProt Q80VC9 944-1252, looked up)
chain: AFTTPVVASAAPVATLAPTTRAMAPAEEEVGPRRGDFTRLEYERRAQLKLMDDLDKVLRPRASGTGGPGRGGRRATRPRSGCCDDSALARSPARGLLGSRLSKVYSQSTLSLSTVANEAPNNLGVKRPTSRAPSPSGLMSPSRLPGSRERDWENGSNASSPASVPEYTGPRLYKEPSAKSNKFIIHNALSHCCLAGKVNEPQKNRILEEIEKSKANHFLILFRDSSCQFRALYTLSGETEELSRLAGYGPRTVTPAMVEGIYKYNSDRKRFTQIPAKTMSMSVDAFTIQGHLWQSKKPTTPKKGGGTPK
notes: source: Sf9 cells, purified
B2: GFP-CAMSAP3 (natural protein, UniProt Q80VC9 1-1252, looked up)
chain: MVEAAPAGSGPLRRTFLVPEIKSLDQYDFSRAKAAASLAWVLRAAFGGAEHVPPELWEPFYTDQYAQEHVKPPVTRLLLSAELYCRAWRQALPQLEPSPSPSALLALLARRGTVPSLPEHPVREADLKHQPILMGAHLAVIDALMVAFSFEWTKTLPGPLALSSLEHKLLFWVDTTVRRLQEKTEQEAAQRASPAAPLDGASPAQPSIRYRKDRAIARRAPCFPNVTTLQDLASGAALAATIHCYCPQLLRLEEVCLKDPMSVADSLYNLQLVQDFCASHLPRGCPLSLEDLLYVPPPLKVNLVVLLAEMYMCFEVLKPDFVQAKDLPDGHAVSPRNTETVPSQNNSGSSSPVFNFRHPLLSPGGPQSPLRGSTGSLKSSPSMSHMEALGKAWNRQLSRPLSQAVSFSTPFGLDSDVDVVMGDPVLLRSVSSDSLGPPRPVSTSSRNSAQPAPESGDLPTIEEALQIIHSAEPRLLPDGAADGSFYLHSPEGLSKPPLSPYPPEGASKPLSDRLNKAPIYISHPENPSKSSPCSTGEILKPPPPSEGSPKAVASSPAANNSEVKMTSFAERKKQLVKAEAESGLGSPTSTPVAPEALSSEMSELGARLEEKRRAIEAQKRRIEAIFAKHRQRLGKSAFLQVQPREAAGEAEEEAELGSVPGGERPAGEGQGEPSLRHKSVTFSPDLGPVPPEGLGDYNRAVSKLSAALSSLQRDMQRLTDQQQRLLAPPEAPGPAPPPAAWVIPGPATGPKAASPSPARRAPAARRSPGPGPSPTPRSPKHARPAELKLAPLTRVLTPPHDVDSLPHLRKFSPSQVPVQTRSSILLSEGTPPEEPTTKPALIEIPLASLGEPAADEEGDGSPPGAEDSLEEEASSEGEPRSGLGFFYKDEDKPEDEMAQKRASLLERQQRRVEEARRRKQWQEAEKEQKREEAARLAQEAPGLAFTTPVVASAAPVATLAPTTRAMAPAEEEVGPRRGDFTRLEYERRAQLKLMDDLDKVLRPRASGTGGPGRGGRRATRPRSGCCDDSALARSPARGLLGSRLSKVYSQSTLSLSTVANEAPNNLGVKRPTSRAPSPSGLMSPSRLPGSRERDWENGSNASSPASVPEYTGPRLYKEPSAKSNKFIIHNALSHCCLAGKVNEPQKNRILEEIEKSKANHFLILFRDSSCQFRALYTLSGETEELSRLAGYGPRTVTPAMVEGIYKYNSDRKRFTQIPAKTMSMSVDAFTIQGHLWQSKKPTTPKKGGGTPK
notes: CAMSAP3 (Nezha), full length; also called Nezha; CAMSAP3 full-length; source: Sf9 cells, purified

Molecular target: the molecule itself
Experiment: SEC-MALS; static light detection of the purified GFP-tagged protein; dimer from the mass of the primary peak

Protein | stoichiometry N
B1 | 2
B2 | 2
